Reference: patent US20160106863A1 (IMMUNOGEN, published 2016)

B1: huML66-sulfo-SPDB-1d conjugate (antibody, human IgG1, kappa, V domains shown)
VH: QVQLQESGPGLVKPSETLSLTCTVSGLSLASNSVSWIRQPPGKGLEWMGVIWNHGGTDYNPSIKSRLSISRDTSKSQVFLKMNSLTAADTAMYFCVRKGGIYFDYWGQGVLVTVSS
VL: DTVLTQSPSLAVSPGERATISCRASESVSTLMHWYQQKPGQQPKLLIYLASHRESGVPARFSGSGSGTDFTLTIDPMEAEDTATYYCQQSRNDPWTFGQGTKLELKR
modifications: compound 1d linked via sulfo-SPDB linker, average of 3.0 molecules per antibody; attachment residues not stated

What was measured:
T47D cells (human) = T47D cells (human) (UniProt P15328); test: flow cytometry binding on T47D cells
T47D cells (human), sequence (P15328 25-234, stated change not applied): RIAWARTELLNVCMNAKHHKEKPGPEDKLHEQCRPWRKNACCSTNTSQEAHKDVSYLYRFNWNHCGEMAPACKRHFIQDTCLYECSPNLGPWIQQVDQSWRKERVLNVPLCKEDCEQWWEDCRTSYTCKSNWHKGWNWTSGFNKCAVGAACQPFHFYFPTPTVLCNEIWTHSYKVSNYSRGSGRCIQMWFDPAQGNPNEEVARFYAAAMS

EGFR = EGFR (UniProt P00533 25-1210, limits assumed); test: cell-based or functional assay

EC50 (T47D cells (human)) | Molecule | EC50 in pM, in vitro cytotoxicity (WST-8), Detroit562 cells (EGFR) | EC50 in pM, in vitro cytotoxicity (WST-8), Detroit562 cells, + block (excess unconjugated antibody) (EGFR) | EC50 in pM, in vitro cytotoxicity (WST-8), NCI-H292 cells (EGFR) | EC50 in pM, in vitro cytotoxicity (WST-8), NCI-H292 cells, + block (excess unconjugated antibody) (EGFR) | EC50 in pM, in vitro cytotoxicity (WST-8), NCI-H1703 cells (EGFR) | EC50 in pM, in vitro cytotoxicity (WST-8), NCI-H1703 cells, + block (excess unconjugated antibody) (EGFR)
0.203 nM | huMOV19 antibody |  |  |  |  |  | 
 | B1 | 110 pM | 960 pM | 20 pM | 690 pM | 70 pM | 1310 pM
